# Biological target: the molecule itself
# Experiment: SEC
row,Protein,stoichiometry N
1,"BTN2A1 (271–527) wild type (domain or fragment, human, UniProt Q7KYR7 271-527, looked up) KLQKEKKILSGEKEFERETREIALKELEKERVQKEEELQVKEKLQEELRWRRTFLHAVDVVLDPDTAHPDLFLSEDRRSVRRCPFRHLGESVPDNPERFDSQPCVLGRESFASGKHYWEVEVENVIEWTVGVCRDSVERKGEVLLIPQNGFWTLEMHKGQYRAVSSPDRILPLKESLCRVGVFLDYEAGDVSFYNMRDRSHIYTCPRSAFSVPVRPFFRLGCEDSPIFICPALTGANGVTVPEEGLTLHRVGTHQSL",2
2,"BTN2A1 (271–527) L318G (domain or fragment, human, UniProt Q7KYR7 271-527, looked up) KLQKEKKILSGEKEFERETREIALKELEKERVQKEEELQVKEKLQEEGRWRRTFLHAVDVVLDPDTAHPDLFLSEDRRSVRRCPFRHLGESVPDNPERFDSQPCVLGRESFASGKHYWEVEVENVIEWTVGVCRDSVERKGEVLLIPQNGFWTLEMHKGQYRAVSSPDRILPLKESLCRVGVFLDYEAGDVSFYNMRDRSHIYTCPRSAFSVPVRPFFRLGCEDSPIFICPALTGANGVTVPEEGLTLHRVGTHQSL",2
3,"BTN2A1 (271–527) W320A (domain or fragment, human, UniProt Q7KYR7 271-527, looked up) KLQKEKKILSGEKEFERETREIALKELEKERVQKEEELQVKEKLQEELRARRTFLHAVDVVLDPDTAHPDLFLSEDRRSVRRCPFRHLGESVPDNPERFDSQPCVLGRESFASGKHYWEVEVENVIEWTVGVCRDSVERKGEVLLIPQNGFWTLEMHKGQYRAVSSPDRILPLKESLCRVGVFLDYEAGDVSFYNMRDRSHIYTCPRSAFSVPVRPFFRLGCEDSPIFICPALTGANGVTVPEEGLTLHRVGTHQSL",2
4,"BTN2A1 (271–527) L318GW320A (domain or fragment, human, UniProt Q7KYR7 271-527, looked up) KLQKEKKILSGEKEFERETREIALKELEKERVQKEEELQVKEKLQEEGRARRTFLHAVDVVLDPDTAHPDLFLSEDRRSVRRCPFRHLGESVPDNPERFDSQPCVLGRESFASGKHYWEVEVENVIEWTVGVCRDSVERKGEVLLIPQNGFWTLEMHKGQYRAVSSPDRILPLKESLCRVGVFLDYEAGDVSFYNMRDRSHIYTCPRSAFSVPVRPFFRLGCEDSPIFICPALTGANGVTVPEEGLTLHRVGTHQSL",2
5,"BTN2A1 (309–527) wild type (domain or fragment, human, UniProt Q7KYR7 309-527, looked up) QVKEKLQEELRWRRTFLHAVDVVLDPDTAHPDLFLSEDRRSVRRCPFRHLGESVPDNPERFDSQPCVLGRESFASGKHYWEVEVENVIEWTVGVCRDSVERKGEVLLIPQNGFWTLEMHKGQYRAVSSPDRILPLKESLCRVGVFLDYEAGDVSFYNMRDRSHIYTCPRSAFSVPVRPFFRLGCEDSPIFICPALTGANGVTVPEEGLTLHRVGTHQSL",2

# Source: article PMC10330345 (Journal of immunology (Baltimore, Md. : 1950), 2023)
